Measurements from publication PMC8170675, “Allostery through DNA drives phenotype switching”.
Positions count from the first letter of the chain named.

Legend:
ComK [1] = biological target: T1, ComK (Bacillus subtilis, UniProt P40396); experiment: smFRET; conditions: amino-C6-dT/dA at dye sites, EMSA: 20 mM Tris pH 7.0, 50 mM L-Arg, 5 mM MgCl2, 150 mM KCl, 10 mM DTT, 0.001% Tween-20, 25 nM DNA, 20 min, smFRET: room temperature, 20 mM DTT
T1 sequence: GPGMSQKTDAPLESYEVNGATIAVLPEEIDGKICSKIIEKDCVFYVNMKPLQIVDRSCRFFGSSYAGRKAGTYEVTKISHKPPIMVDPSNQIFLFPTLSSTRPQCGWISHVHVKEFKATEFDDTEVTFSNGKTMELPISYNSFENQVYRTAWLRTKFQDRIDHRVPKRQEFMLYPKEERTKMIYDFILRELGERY

ComK [2] = biological target: T1, ComK; experiment: smFRET; Hill n 3.55 ± 0.12; unit not in visible table header, inferred from fit parameters; EMSA: 20 mM Tris pH 7.0, 50 mM L-Arg, 5 mM MgCl2, 150 mM KCl, 10 mM DTT, 0.001% Tween-20, 25 nM DNA, 20 min; smFRET: room temperature, 50 mM L-Arg, 20 mM DTT; conditions: protein: recombinant; tags: N-terminal His6-HRV3C tag removed; GPG remains at the N-terminus; chain copies: 4; label: AlexaFluor 488 / AlexaFluor 594; blunt
ComK [3] = biological target: T1, ComK; experiment: smFRET; Hill n 2.93 ± 0.28; unit inferred; EMSA: 20 mM Tris pH 7.0, 50 mM L-Arg, 5 mM MgCl2, 150 mM KCl, 10 mM DTT, 0.001% Tween-20, 25 nM DNA, 20 min; smFRET: room temperature, 50 mM L-Arg, 20 mM DTT; conditions: protein: recombinant; tags: N-terminal His6-HRV3C tag removed; GPG remains at the N-terminus; chain copies: 4; label: AlexaFluor 488 / AlexaFluor 594; blunt ends, internal mismatches in spacer
ComK [4] = biological target: T1, ComK; experiment: smFRET; Hill n 2.97 ± 0.28; unit inferred; EMSA: 20 mM Tris pH 7.0, 50 mM L-Arg, 5 mM MgCl2, 150 mM KCl, 10 mM DTT, 0.001% Tween-20, 25 nM DNA, 20 min; smFRET: room temperature, 50 mM L-Arg, 20 mM DTT; conditions: protein: recombinant; tags: N-terminal His6-HRV3C tag removed; GPG remains at the N-terminus; chain copies: 4; label: AlexaFluor 488 / AlexaFluor 594; blunt
ComK [5] = biological target: T1, ComK; experiment: smFRET; Hill n 3.05 ± 0.08; unit inferred; EMSA: 20 mM Tris pH 7.0, 50 mM L-Arg, 5 mM MgCl2, 150 mM KCl, 10 mM DTT, 0.001% Tween-20, 25 nM DNA, 20 min; smFRET: room temperature, 50 mM L-Arg, 20 mM DTT; conditions: protein: recombinant; tags: N-terminal His6-HRV3C tag removed; GPG remains at the N-terminus; chain copies: 4; label: AlexaFluor 488 / AlexaFluor 594; blunt
ΔCys ComK = biological target: T2, ΔCys ComK (Bacillus subtilis, UniProt P40396 1-192, C31A;C39A;C55A;C102A); experiment: smFRET; 30 pM DNA, 100 nM protein; EMSA: 20 mM Tris pH 7.0, 50 mM L-Arg, 5 mM MgCl2, 150 mM KCl, 10 mM DTT, 0.001% Tween-20, 25 nM DNA, 20 min; smFRET: room temperature, 50 mM L-Arg, 20 mM DTT; conditions: protein: recombinant; chain copies: 4; label: AlexaFluor 488 / AlexaFluor 594; blunt
T2 sequence: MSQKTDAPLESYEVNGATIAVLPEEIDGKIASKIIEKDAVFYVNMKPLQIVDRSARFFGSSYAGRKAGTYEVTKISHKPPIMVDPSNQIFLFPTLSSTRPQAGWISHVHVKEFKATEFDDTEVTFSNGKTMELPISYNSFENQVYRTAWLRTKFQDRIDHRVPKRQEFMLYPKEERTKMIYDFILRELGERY

ComK [6] = biological target: T1, ComK; experiment: smFRET; Hill n 3.44 ± 0.27; unit inferred; EMSA: 20 mM Tris pH 7.0, 50 mM L-Arg, 5 mM MgCl2, 150 mM KCl, 10 mM DTT, 0.001% Tween-20, 25 nM DNA, 20 min; smFRET: room temperature, 50 mM L-Arg, 20 mM DTT; conditions: protein: recombinant; tags: N-terminal His6-HRV3C tag removed; GPG remains at the N-terminus; chain copies: 4; label: AlexaFluor 488 / AlexaFluor 594; blunt
ComK [7] = biological target: T1, ComK; experiment: cryo-EM; 50 mM L-Arg; two ComK per box; EMSA: 20 mM Tris pH 7.0, 50 mM L-Arg, 5 mM MgCl2, 150 mM KCl, 10 mM DTT, 0.001% Tween-20, 25 nM DNA, 20 min; smFRET: room temperature, 50 mM L-Arg, 20 mM DTT; conditions: protein: recombinant; tags: N-terminal His6-HRV3C tag removed; GPG remains at the N-terminus; chain copies: 4; blunt
ComK [8] = biological target: T1, ComK; experiment: smFRET; Hill n 4.34 ± 0.32; unit inferred; EMSA: 20 mM Tris pH 7.0, 50 mM L-Arg, 5 mM MgCl2, 150 mM KCl, 10 mM DTT, 0.001% Tween-20, 25 nM DNA, 20 min; smFRET: room temperature, 50 mM L-Arg, 20 mM DTT; conditions: protein: recombinant; tags: N-terminal His6-HRV3C tag removed; GPG remains at the N-terminus; chain copies: 4; label: AlexaFluor 488 / AlexaFluor 594; blunt
ComK [9] = biological target: T1, ComK; experiment: smFRET; Hill n 2.28 ± 0.16; unit inferred; EMSA: 20 mM Tris pH 7.0, 50 mM L-Arg, 5 mM MgCl2, 150 mM KCl, 10 mM DTT, 0.001% Tween-20, 25 nM DNA, 20 min; smFRET: room temperature, 50 mM L-Arg, 20 mM DTT; conditions: protein: recombinant; tags: N-terminal His6-HRV3C tag removed; GPG remains at the N-terminus; chain copies: 4; label: AlexaFluor 488 / AlexaFluor 594; blunt

comG: isolated box 1 labelled
K half (ComK [1]; Hill n 1.76 ± 0.02, unit inferred): 73 nM

comG: isolated box 2 labelled
K half (ComK [1]; Hill n 1.59 ± 0.09, unit inferred): 48 nM

B1: comG: box 1 labelled (dsDNA)
DNA 1: CAGTTGAAAGTCTTTTTTCTTGCCAGAAAGAATTGGTTTTTCAGCATATAACATCTCACAAAATCACGTTTTCCCTGTTTGATTACCTTTTCT
DNA 2: AGAAAAGGTAATCAAACAGGGAAAACGTGATTTTGTGAGATGTTATATGCTGAAAAACCAATTCTTTCTGGCAAGAAAAAAGACTTTCAACTG
modifications: amino-C6-dT/dA at dye sites
apparent K (half saturation) (ComK [2]): 15 ± 1 nM

B2: comG Mismatch: box 1 labelled (dsDNA)
DNA 1: B1 DNA 1 with T47A, A48T, T49A, A50T
DNA 2: B1 DNA 2
modifications: amino-C6-dT/dA at dye sites
apparent K (half saturation) (ComK [3]): 14 ± 1 nM

B3: comG GC-55%: box 1 labelled (dsDNA)
DNA 1: B1 DNA 1 with T47G, A48C, T54G
DNA 2: B1 DNA 2 with A40C, T46G, A47C
modifications: amino-C6-dT/dA at dye sites
apparent K (half saturation) (ComK [4]): 16 ± 1 nM

B4: comG GC-72%: box 1 labelled (dsDNA)
DNA 1: B1 DNA 1 with A43G, A46C, T47G, A48C, A53G, T54G
DNA 2: B1 DNA 2 with A40C, T41C, T46G, A47C, T48G, T51C
modifications: amino-C6-dT/dA at dye sites
apparent K (half saturation) (ComK [5]): 17 ± 1 nM

B5: comG: box 2 labelled (dsDNA)
DNA 1: B1 DNA 1
DNA 2: B1 DNA 2
modifications: amino-C6-dT/dA at dye sites
binding result (ΔCys ComK): no binding
apparent K (half saturation) (ComK [6]): 16 ± 1 nM

B6: comG unlabelled (dsDNA)
DNA 1: B1 DNA 1
DNA 2: B1 DNA 2
binding result (ComK [7]): binds

B7: addAB unlabelled (dsDNA)
DNA 1: GATGTGCGGAGATAATCAGCTTTTTATATGTGAAAAGGCCGTTTTTACCAATAGATC
DNA 2: GATCTATTGGTAAAAACGGCCTTTTCACATATAAAAAGCTGATTATCTCCGCACATC
binding result (ComK [7]): binds

B8: addAB1: box 1 labelled (dsDNA)
DNA 1: B7 DNA 1
DNA 2: B7 DNA 2
modifications: amino-C6-dT/dA at dye sites
apparent K (half saturation) (ComK [8]): 25 ± 6 nM

B9: comK: box 1 labelled (dsDNA)
DNA 1: CTTATGAAAGTAAAATCGGTTTATTACTAGTCATTTAGTACCATTAAATATCATTAAAAGATGATTTTATCTTAAATG
DNA 2: CATTTAAGATAAAATCATCTTTTAATGATATTTAATGGTACTAAATGACTAGTAATAAACCGATTTTACTTTCATAAG
modifications: amino-C6-dT/dA at dye sites
apparent K (half saturation) (ComK [9]): 21 ± 2 nM
